From publication PMC2779587, “Domain Requirements and Sequence Specificity of DNA Binding for the Forkhead Transcription Factor FOXP3”

How the values were obtained:
FOXP3 FKH domain = biological target: T1, FOXP3 FKH domain (UniProt Q9BZS1 337-423); experiment: EMSA; 12 mM HEPES pH 7.5, 100 mM NaCl, 1 mM DTT, 1 mM EDTA, 12% glycerol, 20 µg/ml poly(dI)-poly(dC), room temperature 20 min; settings: chain copies: 2; label: 32P 5' end; blunt
T1 sequence: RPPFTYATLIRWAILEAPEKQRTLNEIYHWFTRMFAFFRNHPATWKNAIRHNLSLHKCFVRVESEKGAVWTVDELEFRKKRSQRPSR

FOXP3 full length = FOXP3 full length (human, UniProt Q9BZS1 1-431); experiment: as above; settings: protein: ivt; chain copies: 2; label: 32P 5' end; blunt
Chain of FOXP3 full length (Q9BZS1 whole entry): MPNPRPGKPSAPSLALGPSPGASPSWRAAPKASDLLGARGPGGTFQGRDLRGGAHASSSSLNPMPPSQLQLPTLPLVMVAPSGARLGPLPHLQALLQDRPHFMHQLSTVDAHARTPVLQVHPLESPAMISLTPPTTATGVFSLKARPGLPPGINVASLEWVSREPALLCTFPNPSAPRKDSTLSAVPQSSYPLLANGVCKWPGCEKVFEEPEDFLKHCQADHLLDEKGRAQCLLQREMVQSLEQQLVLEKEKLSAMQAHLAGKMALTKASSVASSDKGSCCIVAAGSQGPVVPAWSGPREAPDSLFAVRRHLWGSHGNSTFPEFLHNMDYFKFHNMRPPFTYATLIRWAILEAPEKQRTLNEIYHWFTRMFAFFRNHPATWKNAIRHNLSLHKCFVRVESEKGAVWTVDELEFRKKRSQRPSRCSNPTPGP

Foxp1A full length = Foxp1A full length (mouse, UniProt P58462 1-705); experiment: as above; settings: protein: ivt; tags: HA; chain copies: 2; label: 32P 5' end; blunt
Chain of Foxp1A full length (P58462 whole entry): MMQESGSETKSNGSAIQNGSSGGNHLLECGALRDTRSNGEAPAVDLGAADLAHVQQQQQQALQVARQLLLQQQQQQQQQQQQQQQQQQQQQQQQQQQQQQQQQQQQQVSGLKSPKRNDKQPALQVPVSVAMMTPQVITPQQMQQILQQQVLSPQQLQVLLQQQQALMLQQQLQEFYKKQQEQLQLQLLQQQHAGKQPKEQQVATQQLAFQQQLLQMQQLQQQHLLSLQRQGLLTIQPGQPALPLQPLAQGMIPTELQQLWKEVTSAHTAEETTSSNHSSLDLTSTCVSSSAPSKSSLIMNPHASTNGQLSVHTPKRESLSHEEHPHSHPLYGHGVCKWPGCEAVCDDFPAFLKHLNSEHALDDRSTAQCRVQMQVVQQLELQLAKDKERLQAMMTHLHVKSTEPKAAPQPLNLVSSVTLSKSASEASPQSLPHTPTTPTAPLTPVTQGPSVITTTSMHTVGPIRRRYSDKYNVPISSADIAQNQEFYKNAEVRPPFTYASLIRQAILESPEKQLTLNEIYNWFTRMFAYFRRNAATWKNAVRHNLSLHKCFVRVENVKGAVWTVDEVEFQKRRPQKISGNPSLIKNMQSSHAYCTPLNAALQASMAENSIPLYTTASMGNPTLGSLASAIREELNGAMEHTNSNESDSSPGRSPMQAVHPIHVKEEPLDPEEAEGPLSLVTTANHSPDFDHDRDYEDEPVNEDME

FOXP3-ΔN ΔFKH = FOXP3-ΔN ΔFKH (human, UniProt Q9BZS1 182-336); experiment: as above; settings: protein: ivt; label: 32P 5' end; blunt
Chain of FOXP3-ΔN ΔFKH (Q9BZS1 182-336, stated change not applied): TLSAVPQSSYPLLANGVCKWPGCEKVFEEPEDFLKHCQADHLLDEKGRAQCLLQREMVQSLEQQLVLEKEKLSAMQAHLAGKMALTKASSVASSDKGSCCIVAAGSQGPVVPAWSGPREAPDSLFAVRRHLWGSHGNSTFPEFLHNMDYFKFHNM

FOXP3-ΔN delE251 = FOXP3-ΔN delE251 (human, UniProt Q9BZS1 182-431, del251-251); experiment: as above; settings: protein: ivt; chain copies: 2; label: 32P 5' end; blunt
Chain of FOXP3-ΔN delE251 (Q9BZS1 other isoform, or with tags, fused parts or gaps del251-251 | mutant): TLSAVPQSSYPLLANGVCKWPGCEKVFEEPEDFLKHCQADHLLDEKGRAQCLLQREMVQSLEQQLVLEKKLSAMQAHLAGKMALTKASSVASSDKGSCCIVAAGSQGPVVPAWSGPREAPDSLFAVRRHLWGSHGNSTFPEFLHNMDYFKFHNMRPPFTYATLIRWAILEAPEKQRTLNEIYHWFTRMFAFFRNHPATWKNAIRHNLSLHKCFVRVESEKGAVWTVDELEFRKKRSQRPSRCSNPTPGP

FOXP3-ΔN delK250 = FOXP3-ΔN delK250 (human, UniProt Q9BZS1 182-431, del250-250); experiment: as above; settings: protein: ivt; chain copies: 2; label: 32P 5' end; blunt
Chain of FOXP3-ΔN delK250 (Q9BZS1 other isoform, or with tags, fused parts or gaps del250-250 | mutant): as the sequence (Q9BZS1 other isoform, or with tags, fused parts or gaps del251-251 | mutant) above, with K69E counted along it

FOXP3-ΔN C204S = FOXP3-ΔN C204S (human, UniProt Q9BZS1 182-431, C204S); experiment: EMSA; not influenced by mutation; 12 mM HEPES pH 7.5, 100 mM NaCl, 1 mM DTT, 1 mM EDTA, 12% glycerol, 20 µg/ml poly(dI)-poly(dC), room temperature 20 min; settings: protein: ivt; chain copies: 2; label: 32P 5' end; blunt
Chain of FOXP3-ΔN C204S (Q9BZS1 182-431 C204S): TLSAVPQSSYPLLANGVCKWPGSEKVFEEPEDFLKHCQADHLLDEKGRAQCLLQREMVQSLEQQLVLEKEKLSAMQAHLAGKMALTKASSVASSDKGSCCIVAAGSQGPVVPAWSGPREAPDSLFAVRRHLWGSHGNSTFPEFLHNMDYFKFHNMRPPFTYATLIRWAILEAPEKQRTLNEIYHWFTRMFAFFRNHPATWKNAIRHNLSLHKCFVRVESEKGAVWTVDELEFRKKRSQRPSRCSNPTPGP

FOXP3-ΔN [1] = biological target: T2, FOXP3-ΔN (human, UniProt Q9BZS1 182-431); experiment: EMSA; binding more than doubled; 12 mM HEPES pH 7.5, 100 mM NaCl, 1 mM DTT, 1 mM EDTA, 12% glycerol, 20 µg/ml poly(dI)-poly(dC), room temperature 20 min; settings: protein: ivt; chain copies: 2; label: 32P 5' end; blunt
T2 sequence (Q9BZS1 182-431, stated change not applied): as the sequence (Q9BZS1 182-431 C204S) above, with S23C counted along it

FOXP3-ΔN [2] = biological target: T2, FOXP3-ΔN; experiment: EMSA; 12 mM HEPES pH 7.5, 100 mM NaCl, 1 mM DTT, 1 mM EDTA, 12% glycerol, 20 µg/ml poly(dI)-poly(dC), room temperature 20 min; settings: protein: ivt; chain copies: 2; label: 32P 5' end; blunt
FOXP3-ΔN [3] = biological target: T2, FOXP3-ΔN; experiment: as above; settings: protein: ivt; chain copies: 2; label: 32P 5' end; blunt; remark: listed apart in the source
FOXP3-ΔN [4] = biological target: T2, FOXP3-ΔN; experiment: as above; settings: protein: ivt; chain copies: 2; label: 32P 5' end; blunt; remark: listed apart in the source

B1: A (A1-A2) (dsDNA)
DNA 1: CAAGGTAAACAAGACAACACAAATAA
DNA 2: TTATTTGTGTTGTCTTGTTTACCTTG
- binding result (FOXP3 FKH domain): no binding
- binding result (FOXP3 full length): no binding
- binding result (Foxp1A full length): binds

B2: A' (A1-A1) (dsDNA)
DNA 1: CAAGGTAAACAAGACAACGTAAACAA
DNA 2: TTGTTTACGTTGTCTTGTTTACCTTG
- binding result (FOXP3-ΔN ΔFKH): no binding
- binding result (FOXP3-ΔN delE251): no binding
- binding result (FOXP3 full length): no binding
- binding result (FOXP3-ΔN delK250): no binding
- binding result (FOXP3-ΔN C204S): binds
- binding signal (FOXP3-ΔN [1]): > 2 fold versus A probe

B3: A'' (A2-A2) (dsDNA)
DNA 1: CAAGACAAATAAGACAACACAAATAA
DNA 2: TTATTTGTGTTGTCTTATTTGTCTTG
- binding result (FOXP3-ΔN [2]): no binding
- binding result (FOXP3 full length): no binding

B4: A' (AT) (dsDNA)
DNA 1: CAAGATAAACAAGACAACATAAACAA
DNA 2: TTGTTTATGTTGTCTTGTTTATCTTG
- binding signal (FOXP3-ΔN [3]): < 0.5 fold versus A' (GT)

B5: A' (GC) (dsDNA)
DNA 1: CAAGGCAAACAAGACAACGCAAACAA
DNA 2: TTGTTTGCGTTGTCTTGTTTGCCTTG
- binding result (FOXP3-ΔN [2]): no binding

B6: A' (25 bp), 10-bp spacing (dsDNA)
DNA 1: CAAGGTAAACAAGAGTAAACAAGTC
DNA 2: GACTTGTTTACTCTTGTTTACCTTG
- binding signal (FOXP3-ΔN [4]): ~3 fold versus 14-bp spacing

B7: A' (35 bp), 20-bp spacing (dsDNA)
DNA 1: CAAGGTAAACAAGACAACACGATTGTAAACAAGTC
DNA 2: GACTTGTTTACAATCGTGTTGTCTTGTTTACCTTG
- binding signal (FOXP3-ΔN [4]): ~3 fold versus 14-bp spacing
